Experimental data reported in article PMC4899871, “The T300A Crohn's disease risk polymorphism impairs function of the WD40 domain of ATG16L1” (Nature Communications, 2016).
Ends that are not written are not given here. Tds = not defined here

Columns and labels:
Test in all cases: peptide or protein array; Peptides immobilised through the N-terminus (Tds spacer) on glass slides (JPT), nine spots per peptide; recombinant ligand 400 nM to 1 uM in PBS/0.05% Tween-20 with 5% BSA, 2 h at room temperature then overnight at 4 °C; detected with anti-HA plus anti-GST and Cy5-labelled secondary antibodies; background of a FLAG peptide subtracted
Conditions in all cases: both partners purified
[1] = target: T1, GST-HA-ATG16L1-320–607 (recombinant WD40 domain fused to GST and the HA tag) (human, UniProt Q676U5 320-607)
T1 construct: source: E. coli BL21 (pGEX), purified (GSH-agarose, eluted with reduced GSH)

[2] = target: T2, GST-HA-ATG16L1-231–607 A300, purified from human cells (human, UniProt Q676U5 231-607, T300A)
T2 construct: source: HEK-293T, retrovirally transduced, purified (GSH-agarose)

[3] = target: T3, GST-HA-ATG16L1-231–607 T300, purified from human cells (human, UniProt Q676U5 231-607)
T3 construct: source: HEK-293T, retrovirally transduced, purified (GSH-agarose)
T3 sequence (Q676U5 231-607): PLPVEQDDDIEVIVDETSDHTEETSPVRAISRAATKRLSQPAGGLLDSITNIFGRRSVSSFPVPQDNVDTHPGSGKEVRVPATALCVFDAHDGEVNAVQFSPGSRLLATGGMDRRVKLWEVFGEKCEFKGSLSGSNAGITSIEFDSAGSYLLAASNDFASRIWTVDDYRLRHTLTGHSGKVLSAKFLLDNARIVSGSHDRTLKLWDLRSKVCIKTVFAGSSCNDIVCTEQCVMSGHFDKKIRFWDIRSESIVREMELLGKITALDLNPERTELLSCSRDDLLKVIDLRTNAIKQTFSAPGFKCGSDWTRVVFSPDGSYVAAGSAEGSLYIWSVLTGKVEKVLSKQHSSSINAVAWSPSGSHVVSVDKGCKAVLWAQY

T1 sequence (Q676U5 320-607): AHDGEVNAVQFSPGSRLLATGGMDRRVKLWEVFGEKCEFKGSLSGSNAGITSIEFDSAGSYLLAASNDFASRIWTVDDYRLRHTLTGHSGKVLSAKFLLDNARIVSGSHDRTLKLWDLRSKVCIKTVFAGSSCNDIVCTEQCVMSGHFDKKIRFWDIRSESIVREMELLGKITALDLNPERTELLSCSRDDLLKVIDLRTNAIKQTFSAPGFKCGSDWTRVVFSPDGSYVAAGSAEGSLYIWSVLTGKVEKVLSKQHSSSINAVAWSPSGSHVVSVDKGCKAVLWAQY
T2 sequence (Q676U5 231-607 T300A): as the sequence (Q676U5 231-607) above, with T70A counted along it

B1: TMEM59 263–281 peptide, wild type (19-amino acid peptide that includes the ATG16L1-binding motif) (peptide, UniProt Q9BXS4 263-281, looked up)
peptide: Tds-TAVEQYVPSEKLSIYGDLE
modifications: not fully specified; reading uncertain
notes: TMEM59 residues 263-281 of the intracellular domain; also called WT peptide; native peptide; source: synthetic peptide on microarray, bought: JPT (Germany)
- binding result [1]: binds
- binding result [2]: binds
- binding result [3]: binds

B2: TMEM59 263–281 peptide E272A (peptide, UniProt Q9BXS4 263-281, looked up)
peptide: Tds-TAVEQYVPSAKLSIYGDLE
modifications: reading uncertain
notes: TMEM59 residues 263-281 with E272A; source: synthetic peptide on microarray, bought: JPT (Germany)
- binding result [3]: binds
